From US20250262210A1 (TRUSTEES OF COLUMBIA UNIVERSITY IN THE CITY OF NEW YORK, published 2025)

Tests used:
Assay in all cases: IP/MS, LZTR1 wild type-FLAG, U87
FBX038 = target: T1, FBX038 (human, UniProt Q6PIJ6 1-1188, limits assumed)
T1 construct: Printed with a zero; probably FBXO38
T1 sequence (looked up): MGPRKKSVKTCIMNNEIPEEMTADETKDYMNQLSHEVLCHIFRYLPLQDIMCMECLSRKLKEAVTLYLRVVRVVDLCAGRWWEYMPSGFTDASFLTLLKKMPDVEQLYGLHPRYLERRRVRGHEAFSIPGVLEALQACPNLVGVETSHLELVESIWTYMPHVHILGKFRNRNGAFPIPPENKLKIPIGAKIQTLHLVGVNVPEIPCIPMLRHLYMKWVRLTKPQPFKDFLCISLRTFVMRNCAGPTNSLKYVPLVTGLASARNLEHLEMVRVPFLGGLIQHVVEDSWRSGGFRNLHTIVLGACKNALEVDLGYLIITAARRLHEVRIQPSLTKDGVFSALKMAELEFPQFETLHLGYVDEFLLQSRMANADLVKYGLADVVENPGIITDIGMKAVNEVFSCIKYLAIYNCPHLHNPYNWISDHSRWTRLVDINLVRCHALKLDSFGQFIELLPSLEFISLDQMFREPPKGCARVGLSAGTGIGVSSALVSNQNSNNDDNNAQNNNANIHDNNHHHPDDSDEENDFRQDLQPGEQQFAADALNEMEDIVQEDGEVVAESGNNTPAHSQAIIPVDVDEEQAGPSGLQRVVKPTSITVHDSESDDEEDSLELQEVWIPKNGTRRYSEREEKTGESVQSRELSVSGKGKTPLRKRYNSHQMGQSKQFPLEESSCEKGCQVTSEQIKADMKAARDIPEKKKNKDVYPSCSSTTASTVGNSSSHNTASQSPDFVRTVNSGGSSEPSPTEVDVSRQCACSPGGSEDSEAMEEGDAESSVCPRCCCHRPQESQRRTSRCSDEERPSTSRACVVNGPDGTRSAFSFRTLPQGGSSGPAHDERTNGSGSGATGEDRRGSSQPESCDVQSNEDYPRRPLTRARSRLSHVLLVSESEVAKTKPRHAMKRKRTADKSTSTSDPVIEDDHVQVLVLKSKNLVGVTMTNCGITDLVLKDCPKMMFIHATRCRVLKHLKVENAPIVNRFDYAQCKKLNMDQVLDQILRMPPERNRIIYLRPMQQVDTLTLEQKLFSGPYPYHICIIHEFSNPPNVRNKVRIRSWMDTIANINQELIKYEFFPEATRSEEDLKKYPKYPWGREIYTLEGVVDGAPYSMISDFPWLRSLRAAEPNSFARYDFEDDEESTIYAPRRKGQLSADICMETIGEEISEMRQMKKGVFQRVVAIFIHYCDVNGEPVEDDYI
Procedure, shortened: (§1)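 Gel slices were reduced with 5 mM DTT, alkylated with 11 mM IAA and digested overnight at 37° C. with trypsin. Peptides were analysed on an Orbitrap Fusion Tribrid by LC-MS/MS.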

GTF3C2 = target: T2, GTF3C2 (human, UniProt Q8WUA4 1-911, limits assumed)
T2 sequence (looked up): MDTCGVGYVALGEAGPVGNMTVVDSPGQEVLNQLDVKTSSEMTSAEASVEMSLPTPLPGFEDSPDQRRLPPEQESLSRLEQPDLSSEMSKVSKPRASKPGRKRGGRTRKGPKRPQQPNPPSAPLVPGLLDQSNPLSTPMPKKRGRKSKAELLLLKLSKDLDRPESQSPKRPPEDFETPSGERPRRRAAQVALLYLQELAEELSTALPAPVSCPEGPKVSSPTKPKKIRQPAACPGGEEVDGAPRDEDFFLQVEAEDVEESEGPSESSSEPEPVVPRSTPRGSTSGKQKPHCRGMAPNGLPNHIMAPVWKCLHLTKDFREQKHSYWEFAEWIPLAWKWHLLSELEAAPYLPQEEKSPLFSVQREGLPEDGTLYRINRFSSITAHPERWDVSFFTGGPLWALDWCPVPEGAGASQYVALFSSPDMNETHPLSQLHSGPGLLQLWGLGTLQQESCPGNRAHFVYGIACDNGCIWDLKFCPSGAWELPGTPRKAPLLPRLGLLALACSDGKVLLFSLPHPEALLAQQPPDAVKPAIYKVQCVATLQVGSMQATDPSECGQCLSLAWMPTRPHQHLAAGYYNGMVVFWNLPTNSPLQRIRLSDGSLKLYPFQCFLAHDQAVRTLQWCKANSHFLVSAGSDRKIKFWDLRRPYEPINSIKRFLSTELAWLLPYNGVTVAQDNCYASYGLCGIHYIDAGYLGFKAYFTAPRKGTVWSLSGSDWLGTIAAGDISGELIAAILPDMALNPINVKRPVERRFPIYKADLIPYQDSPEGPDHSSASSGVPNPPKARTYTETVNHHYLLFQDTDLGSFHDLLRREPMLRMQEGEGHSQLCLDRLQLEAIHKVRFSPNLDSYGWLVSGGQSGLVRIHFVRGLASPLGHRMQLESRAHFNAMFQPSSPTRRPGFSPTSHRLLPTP
Procedure, shortened: as §1

INTS1 = INTS1 (human, UniProt Q8N201 1-2190)
Chain of INTS1 (Q8N201 whole entry): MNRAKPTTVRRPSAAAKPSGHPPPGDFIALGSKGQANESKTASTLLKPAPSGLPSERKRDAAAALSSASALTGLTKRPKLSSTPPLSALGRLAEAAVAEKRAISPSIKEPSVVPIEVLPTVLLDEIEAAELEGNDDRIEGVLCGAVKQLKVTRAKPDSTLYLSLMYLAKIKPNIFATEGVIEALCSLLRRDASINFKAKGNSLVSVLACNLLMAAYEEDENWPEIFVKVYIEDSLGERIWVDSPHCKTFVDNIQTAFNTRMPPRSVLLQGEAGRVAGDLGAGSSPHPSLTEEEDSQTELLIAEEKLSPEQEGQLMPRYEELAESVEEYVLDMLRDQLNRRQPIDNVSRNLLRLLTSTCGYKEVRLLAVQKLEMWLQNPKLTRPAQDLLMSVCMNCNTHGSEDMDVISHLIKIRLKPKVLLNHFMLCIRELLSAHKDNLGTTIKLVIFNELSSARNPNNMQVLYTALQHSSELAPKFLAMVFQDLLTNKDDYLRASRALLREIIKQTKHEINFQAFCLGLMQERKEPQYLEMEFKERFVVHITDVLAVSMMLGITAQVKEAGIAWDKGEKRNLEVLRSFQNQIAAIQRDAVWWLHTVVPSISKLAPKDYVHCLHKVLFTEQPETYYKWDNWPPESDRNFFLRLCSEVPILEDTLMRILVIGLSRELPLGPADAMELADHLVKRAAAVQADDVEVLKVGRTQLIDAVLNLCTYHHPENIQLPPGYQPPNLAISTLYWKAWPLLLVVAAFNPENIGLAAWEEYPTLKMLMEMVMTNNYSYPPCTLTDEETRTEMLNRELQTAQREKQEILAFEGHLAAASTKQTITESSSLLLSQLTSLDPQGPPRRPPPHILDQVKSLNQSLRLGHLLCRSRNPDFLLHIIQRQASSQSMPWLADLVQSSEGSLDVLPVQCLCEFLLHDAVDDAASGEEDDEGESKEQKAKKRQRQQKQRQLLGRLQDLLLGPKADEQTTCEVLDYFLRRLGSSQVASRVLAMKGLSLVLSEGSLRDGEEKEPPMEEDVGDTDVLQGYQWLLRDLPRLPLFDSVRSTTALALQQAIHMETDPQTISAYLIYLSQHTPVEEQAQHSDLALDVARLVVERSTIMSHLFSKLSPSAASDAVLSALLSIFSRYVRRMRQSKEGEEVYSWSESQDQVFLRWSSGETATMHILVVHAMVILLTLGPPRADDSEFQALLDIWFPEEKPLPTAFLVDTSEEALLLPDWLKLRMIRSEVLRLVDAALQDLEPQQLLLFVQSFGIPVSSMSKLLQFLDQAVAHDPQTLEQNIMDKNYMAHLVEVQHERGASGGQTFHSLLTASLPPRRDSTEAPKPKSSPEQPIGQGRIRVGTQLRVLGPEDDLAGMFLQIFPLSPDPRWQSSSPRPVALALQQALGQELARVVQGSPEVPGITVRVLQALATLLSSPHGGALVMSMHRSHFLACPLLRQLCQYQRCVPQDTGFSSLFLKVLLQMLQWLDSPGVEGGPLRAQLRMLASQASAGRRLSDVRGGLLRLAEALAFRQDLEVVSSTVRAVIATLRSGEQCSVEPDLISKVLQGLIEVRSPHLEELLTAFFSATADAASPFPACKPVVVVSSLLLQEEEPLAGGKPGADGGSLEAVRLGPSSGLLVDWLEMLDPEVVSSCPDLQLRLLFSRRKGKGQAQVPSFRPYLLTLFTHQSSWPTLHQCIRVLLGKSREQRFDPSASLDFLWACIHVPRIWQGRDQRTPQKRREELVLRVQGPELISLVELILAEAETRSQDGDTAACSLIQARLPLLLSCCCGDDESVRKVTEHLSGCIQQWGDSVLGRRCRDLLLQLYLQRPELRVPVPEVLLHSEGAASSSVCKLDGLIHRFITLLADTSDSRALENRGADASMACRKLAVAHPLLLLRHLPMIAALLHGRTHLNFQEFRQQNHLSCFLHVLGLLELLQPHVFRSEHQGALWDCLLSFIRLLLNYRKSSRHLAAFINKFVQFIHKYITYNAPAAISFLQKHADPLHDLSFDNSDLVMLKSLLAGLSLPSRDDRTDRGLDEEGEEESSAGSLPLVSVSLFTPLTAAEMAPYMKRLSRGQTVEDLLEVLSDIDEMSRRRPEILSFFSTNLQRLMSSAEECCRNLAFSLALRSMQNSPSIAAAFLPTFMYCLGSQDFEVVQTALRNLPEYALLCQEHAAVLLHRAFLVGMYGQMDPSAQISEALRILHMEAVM
Procedure, shortened: as §1

Measured: binding result

B1: LZTR1-FLAG (other, human, UniProt Q8N653 1-840, looked up)
chain: MAGPGSTGGQIGAAALAGGARSKVAPSVDFDHSCSDSVEYLTLNFGPFETVHRWRRLPPCDEFVGARRSKHTVVAYKDAIYVFGGDNGKTMLNDLLRFDVKDCSWCRAFTTGTPPAPRYHHSAVVYGSSMFVFGGYTGDIYSNSNLKNKNDLFEYKFATGQWTEWKIEGRLPVARSAHGATVYSDKLWIFAGYDGNARLNDMWTIGLQDRELTCWEEVAQSGEIPPSCCNFPVAVCRDKMFVFSGQSGAKITNNLFQFEFKDKTWTRIPTEHLLRGSPPPPQRRYGHTMVAFDRHLYVFGGAADNTLPNELHCYDVDFQTWEVVQPSSDSEVGGAEVPERACASEEVPTLTYEERVGFKKSRDVFGLDFGTTSAKQPTQPASELPSGRLFHAAAVISDAMYIFGGTVDNNIRSGEMYRFQFSCYPKCTLHEDYGRLWESRQFCDVEFVLGEKEECVQGHVAIVTARSRWLRRKITQARERLAQKLEQEAAPVPREAPGVAAGGARPPLLHVAIREAEARPFEVLMQFLYTDKIKYPRKGHVEDVLLIMDVYKLALSFQLCRLEQLCRQYIEASVDLQNVLVVCESAARLQLSQLKEHCLNFVVKESHFNQVIMMKEFERLSSPLIVEIVRRKQQPPPRTPLDQPVDIGTSLIQDMKAYLEGAGAEFCDITLLLDGHPRPAHKAILAARSSYFEAMFRSFMPEDGQVNISIGEMVPSRQAFESMLRYIYYGEVNMPPEDSLYLFAAPYYYGFYNNRLQAYCKQNLEMNVTVQNVLQILEAADKTQALDMKRHCLHIIVHQFTKVSKLPTLRSLSQQLLLDIIDSLASHISDKQCAELGADI
notes: Expressed in HEK 293T, HeLa or U87 cells; used as cell lysate; also called LZTR1 wild type-FLAG; LZTR1 WT; not shown: FLAG tag at the C-terminus
binds: all assays above
